# Experimental data published in the supplement of paper PMC10567573.
# B1: WDFY1 (parent)
# chain: FWNIKQMWDTKTLGLRQHHCRKCG
# B2: FBXO34 (parent)
# chain: PRYREDPCKQCKKKYVKGDVSLCR
# Variants of: B1
# Assay: protein stability index of a GFP-peptide fusion (GPS, HEK-293T) (PSI 1-6); higher = more stable
# Details: c terminus: a fixed tail appended
# 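Further: lentivirally expressed fusions sorted by FACS into six bins by GFP to DsRed ratio, PSI derived from sequencing read proportions per bin multiplied by bin number.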
row,Variant,protein stability index
1,FWNIKQMWDTKTLGLRQHVCRKCG [H19V],2.17
2,FWNIKQMWDTKTLGLRQHWCRKCG [H19W],1.66
3,FWNIKQMWDTKTLGLRQHYCRKCG [H19Y],2.5
4,FWNIKQMWDTKTLGLRQHHARKCG [C20A],1.82
5,FWNIKQMWDTKTLGLRQHHDRKCG [C20D],3.16
6,FWNIKQMWDTKTLGLRQHHERKCG [C20E],2.09
7,FWNIKQMWDTKTLGLRQHHFRKCG [C20F],2.41
8,FWNIKQMWDTKTLGLRQHHGRKCG [C20G],1.87
9,FWNIKQMWDTKTLGLRQHHHRKCG [C20H],2.69
10,FWNIKQMWDTKTLGLRQHHIRKCG [C20I],2.17
11,FWNIKQMWDTKTLGLRQHHLRKCG [C20L],2.23
12,FWNIKQMWDTKTLGLRQHHMRKCG [C20M],2.57
13,FWNIKQMWDTKTLGLRQHHNRKCG [C20N],2.52
14,FWNIKQMWDTKTLGLRQHHPRKCG [C20P],1.73
15,FWNIKQMWDTKTLGLRQHHQRKCG [C20Q],3.22
16,FWNIKQMWDTKTLGLRQHHRRKCG [C20R],2.4
17,FWNIKQMWDTKTLGLRQHHSRKCG [C20S],2.44
18,FWNIKQMWDTKTLGLRQHHTRKCG [C20T],2.52
19,FWNIKQMWDTKTLGLRQHHVRKCG [C20V],2.2
20,FWNIKQMWDTKTLGLRQHHWRKCG [C20W],2.06
21,FWNIKQMWDTKTLGLRQHHYRKCG [C20Y],2.23
22,FWNIKQMWDTKTLGLRQHHCAKCG [R21A],2.03
23,FWNIKQMWDTKTLGLRQHHCCKCG [R21C],2.12

row,Variant,protein stability index
1,FWNIKQMWDTKTLGLRQHHCDKCG [R21D],2.8
2,FWNIKQMWDTKTLGLRQHHCEKCG [R21E],2.07
3,FWNIKQMWDTKTLGLRQHHCFKCG [R21F],1.85
4,FWNIKQMWDTKTLGLRQHHCGKCG [R21G],1.84
5,FWNIKQMWDTKTLGLRQHHCHKCG [R21H],1.57
6,FWNIKQMWDTKTLGLRQHHCIKCG [R21I],1.72
7,FWNIKQMWDTKTLGLRQHHCKKCG [R21K],2.78
8,FWNIKQMWDTKTLGLRQHHCLKCG [R21L],1.67
9,FWNIKQMWDTKTLGLRQHHCMKCG [R21M],1.71
10,FWNIKQMWDTKTLGLRQHHCNKCG [R21N],1.83
11,FWNIKQMWDTKTLGLRQHHCPKCG [R21P],2.07
12,FWNIKQMWDTKTLGLRQHHCQKCG [R21Q],2.28
13,FWNIKQMWDTKTLGLRQHHCSKCG [R21S],2.16
14,FWNIKQMWDTKTLGLRQHHCTKCG [R21T],2.62
15,FWNIKQMWDTKTLGLRQHHCWKCG [R21W],2.46
16,FWNIKQMWDTKTLGLRQHHCYKCG [R21Y],2.14
17,FWNIKQMWDTKTLGLRQHHCRACG [K22A],1.59
18,FWNIKQMWDTKTLGLRQHHCRCCG [K22C],1.7
19,FWNIKQMWDTKTLGLRQHHCRDCG [K22D],3.4
20,FWNIKQMWDTKTLGLRQHHCRECG [K22E],1.6
21,FWNIKQMWDTKTLGLRQHHCRFCG [K22F],3.26
22,FWNIKQMWDTKTLGLRQHHCRGCG [K22G],1.82
23,FWNIKQMWDTKTLGLRQHHCRHCG [K22H],1.44

row,Variant,protein stability index
1,FWNIKQMWDTKTLGLRQHHCRLCG [K22L],1.34
2,FWNIKQMWDTKTLGLRQHHCRMCG [K22M],1.03
3,FWNIKQMWDTKTLGLRQHHCRNCG [K22N],1.99
4,FWNIKQMWDTKTLGLRQHHCRPCG [K22P],1.98
5,FWNIKQMWDTKTLGLRQHHCRQCG [K22Q],2.01
6,FWNIKQMWDTKTLGLRQHHCRSCG [K22S],1.66
7,FWNIKQMWDTKTLGLRQHHCRVCG [K22V],1.41
8,FWNIKQMWDTKTLGLRQHHCRYCG [K22Y],2.2
9,FWNIKQMWDTKTLGLRQHHCRKAG [C23A],2.18
10,FWNIKQMWDTKTLGLRQHHCRKDG [C23D],2.82
11,FWNIKQMWDTKTLGLRQHHCRKEG [C23E],1.93
12,FWNIKQMWDTKTLGLRQHHCRKFG [C23F],1.59
13,FWNIKQMWDTKTLGLRQHHCRKHG [C23H],2.78
14,FWNIKQMWDTKTLGLRQHHCRKIG [C23I],1.93
15,FWNIKQMWDTKTLGLRQHHCRKKG [C23K],2.71
16,FWNIKQMWDTKTLGLRQHHCRKLG [C23L],2.81
17,FWNIKQMWDTKTLGLRQHHCRKMG [C23M],2.6
18,FWNIKQMWDTKTLGLRQHHCRKNG [C23N],2.57
19,FWNIKQMWDTKTLGLRQHHCRKPG [C23P],2.19
20,FWNIKQMWDTKTLGLRQHHCRKQG [C23Q],2.3
21,FWNIKQMWDTKTLGLRQHHCRKRG [C23R],2.09
22,FWNIKQMWDTKTLGLRQHHCRKTG [C23T],2.34
23,FWNIKQMWDTKTLGLRQHHCRKWG [C23W],1.75

row,Variant,protein stability index
1,FWNIKQMWDTKTLGLRQHHCRKYG [C23Y],2.04
2,FWNIKQMWDTKTLGLRQHHCRKCA [G24A],1.84
3,FWNIKQMWDTKTLGLRQHHCRKCC [G24C],2.22
4,FWNIKQMWDTKTLGLRQHHCRKCD [G24D],2.15
5,FWNIKQMWDTKTLGLRQHHCRKCE [G24E],2.18
6,FWNIKQMWDTKTLGLRQHHCRKCF [G24F],1.96
7,FWNIKQMWDTKTLGLRQHHCRKCH [G24H],2.13
8,FWNIKQMWDTKTLGLRQHHCRKCI [G24I],2.11
9,FWNIKQMWDTKTLGLRQHHCRKCK [G24K],2.5
10,FWNIKQMWDTKTLGLRQHHCRKCL [G24L],2.22
11,FWNIKQMWDTKTLGLRQHHCRKCM [G24M],1.85
12,FWNIKQMWDTKTLGLRQHHCRKCN [G24N],2.09
13,FWNIKQMWDTKTLGLRQHHCRKCP [G24P],1.88
14,FWNIKQMWDTKTLGLRQHHCRKCQ [G24Q],2.21
15,FWNIKQMWDTKTLGLRQHHCRKCR [G24R],2.35
16,FWNIKQMWDTKTLGLRQHHCRKCS [G24S],2.1
17,FWNIKQMWDTKTLGLRQHHCRKCT [G24T],2.29
18,FWNIKQMWDTKTLGLRQHHCRKCV [G24V],2.01
19,FWNIKQMWDTKTLGLRQHHCRKCW [G24W],2.12
20,FWNIKQMWDTKTLGLRQHHCRKCY [G24Y],2.01

# Variants of: B2
# Assay: as above
# Details: c terminus: a fixed tail appended
row,Variant,protein stability index
1,ARYREDPCKQCKKKYVKGDVSLCR [P1A],3.11
2,CRYREDPCKQCKKKYVKGDVSLCR [P1C],2.02
3,DRYREDPCKQCKKKYVKGDVSLCR [P1D],2.96
4,ERYREDPCKQCKKKYVKGDVSLCR [P1E],3.4
5,FRYREDPCKQCKKKYVKGDVSLCR [P1F],2.61
